Results reported in the nanobody polyreactivity screen of Harvey et al. (2022).

assay: yeast display, Sf9 membrane polyspecificity reagent, FACS + sequencing; frameworks hold sequencing errors
In short: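 Nanobodies came from a synthetic yeast display library in Saccharomyces cerevisiae BJ5465, induced with galactose for 36–48 hours and stained for 1 hour at 4 °C with 10% biotinylated, detergent-solubilized Sf9 membrane reagent. Cells were enriched on streptavidin microbeads and then FACS-sorted, with low and high (top ~1%) gates set on anti-HA fluorescence for expression and streptavidin fluorescence for reagent binding. Each polyreactivity label reflects the gate a clone came from. Genes were amplified by colony PCR, sequenced by MiSeq 2 × 250 and filtered by CDR length.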

| Sequence | polyreactivity (PSR sort gate) |
| --- | --- |
| QVQLVESGGGLVQAGGSLRLSCAASGSIYSSYAMGWYRQAPGKERELVAAISSSGDSTYADSVKGRFTISRDNAKNTVYLQMNSLKPEDTAVYYCAVGGAGSDDYWGQGTQVTVSS | low polyreactivity |
| QVHLVESGGGLVQAGGSLRLSCAASGSTFKRYAMGWYRPAPGKERELVAAIRRGGITNYADSVKGRFTISRDNAKNTVYLQMNSLKPEDTAVYYCAKDGVTYPYSYEYDYWGQGTQVTVSS | low polyreactivity |
| QVQLVESGGGIVQAGGSLRLSCAASGNIFGGYAMGWYRQAPGKERELVAAISQRGGITYYADSVKGRFTISRDNAKNTVYLQMNSLKPEDTAVFYCAKRGPYGWYGAYDYWGQGTQVTVSS | low polyreactivity |
| QVQLVESGGGLVQAGGSLRLSCAASGSIFTPYAMGWYRQAPGKERELVAAITYSGGSTYYADSVKGRFTISRDNAKNTVYLQMNSLKPEDTAVYYCAAYFNIYGLEYDYWGQGTQVTVSS | high polyreactivity |
| QFQLVESGGGLVQAGGSLRLSCAASGSIFIPYAMGWYRQAPGKEREFVATITFGAASTYYADSVKGRFTISRDNAKNTVYLQMNSLKREDTAVYYCAAEWRRYEYADSWEYDYWGQGTQVTVSS | low polyreactivity |
| QVQLVESGGGIVQAGGSLRLSCAASGSTGFNTMGWYRQAPGKERELVAAIRATGGSTYYADSVKGRFTISRDNAKNTVYLQMNSLKPEDTAVYYCAAKWFRQYLRQDRYYYWGQGTQVTVSS | high polyreactivity |
| QVQLVESGGGLVQAGGSLRLSCAASGSTFAWYAMGWYRQAPGKERELVATISSSGVSTFYADSVKGRFTISRDNAKNTVYLQMNSLKPEDTAVYYCNRYGNSYYFAPGPLYNYWGQGTQVTVSS | high polyreactivity |
| QVQLLESGGGLVQAGGSLRLTCAASGSTFRYNAMGWYRQAPGKERELVAAISSGSSTNYADSVKGRFTLSRDNAKNTVYLQMNSLKPEDTAVYYCAAQPGYYDDFYYWGQGTQVTVSS | low polyreactivity |
| QVQLVESGGGLVQSGGSLRLICAASGRIFPYYAMGWYRQAPGKERELVATIRGRVGTTYYADSVKGRFTISRDNAKNTVYLQMTSLKPEDTAVYYCAKREYSRYTRVFGYGSWGQCTQVTVSS | high polyreactivity |
| QVQLVESGGGLVQAGGSLRLSCAASGSTFTYYAMGWYRQAPGKERELVAAISRRGGSTYYADSVKGRFTISRDNAKNTVYLQMNSLKPEDTAVYYCNVVIYSYGINGRYDYWGQGTQVTVSS | high polyreactivity |
| QVQLVESGGGLVQAGGSLRLSCAASGFISNGYAMGWYRQAPGKEREFVASISSSGGSTYYADSVKGRFTISRDIAKNTVYLQMNSLKTEDTAVYYCNARYWWVIKVKLGYWGQGTQVTVSS | low polyreactivity |
| QVQLVESGGGLVQAGGSLRLSCAASGRTFYWYVMGWYRQAPGKERELVAAITQTGSSTYYADSVKGRFTISRDNAKNTVYLQMNSLKPEDTAAYYCADRLSRNHYEVDYWGQGTQVTVSS | low polyreactivity |
| QLQLVESGGGLVQAGGSLRLSCAASGRTFYQYAMGWYRKAPGKERELVAAITTSGGSTYYADSVKGRFTISRDNAKNTVYLQMNSLKPEYTAVYYCAAPYTGYRERGSYKSDYWGQGTQVTVSS | low polyreactivity |
| QVQLVESGGGLVQAGGSLRLSCAASGFTFRGNAMGWYRQAPGKERELVAAITRRGGSTYYADSVKGRFTISRDNAKNTVYLQMNSLKPEDTAVYYCARDSPRPPQSSRMAYWGQGTQVTVSS | high polyreactivity |
| QVQLVESGGGLVQAGGSLRLSCAASGIIFYAYAMGWYRQAPGKEREFVAAINNSGGRTYYADSVKGRFTISRDNAKNTVYLQMNSLKPEDTAVYYCAVYSYYRRTYRREMDYWGQGTQVTVSS | high polyreactivity |
| QFQLVESGGGLVQAGGILRLSCAASGLIFQAYTMGWYRQAPGKEREFVAAISKSGGSTYYADSVKGRFTISRDNAKNTVYLQMNSLKPEDTAVYYCAAVDWRRPGYDYWGQGTQVTVSS | high polyreactivity |
| QVQLVESGGGLVQAGGSLRLSCAASGRTFRYNAMGWYRQAPGKERELVAAIRYSGGRTYADSVKGRFTISRDNAKNTVYLQMNSLKPEDTAVYYCNADSIRRGYRYDYWGQGTQVTVSS | high polyreactivity |
| QVQLVESGGGLVQAGGSLRLSCAASGRTFTIYARGWYRHAPGKERELVAAISSGSRTYYADSVKGRFTISRDNAKNTVYLQMNSLKPEDTAVYYCAASLTRHGYYRLFDYWGQGTQVTVSS | high polyreactivity |
| QVQLVESGGGIVQAGGSLRLSCAASGSTFSKYAMGWYRQAPGNERELVAAISSRGGSTYYADSVKGRFTISRDNAKNTVYLQMNCLKPEDTAVYYCAAKFYAEYGYWGHGTQVTVSS | high polyreactivity |
| QVQLVETGGGLVQAGGSLRLSCAASGRTLYYYAMGWYRQAPGKERELVAAITRSGGSTYYADSVKGRFTISRDNAKNTVYLQMNSLKPEDTEVYYCNKYGYKGGVGYDYWGQGTQVTVSS | high polyreactivity |
| QVQLVESGGRLVQAGGSLRLSCAASGYIFFHYSRGWYRQAPGTERELVAANTSGGSTNYADSVKGRFTMSRDNAKNTDYLQMNSLKPEDTAVYYCAARGWINSKRLYALWGFDYWGQGTQVTVSS | low polyreactivity |

| Sequence | polyreactivity (PSR sort gate) |
| --- | --- |
| QVQLVESGGGLVQAGGSLRLSCAASGSIFPYNDMGWYRQAPGKERELVAAISDSAGSTYYADSVKGRFTISRDNAKNTVYLQMNSLKPEDTAVYYCADYDYWGQGTQVTVSS | low polyreactivity |
| QVQLVEYQGGLVQAGGSLRLSSAASGIIFDQYAMGWYRQAPGKEREVVAAITYSGGCTYYADSVNGRFTISRDNEKNTVYLQMNSLKPEDTAVYYCADLFGYSLYDAQYDYWGQGTQVTVSS | low polyreactivity |
| QVQLVESGGGLVQAGGSLRLSCAASGLMFSYYAMGWYRQAPGKERELVAAISWNGGSTYYADSVKGRFTISRDNAKNTVYLQMNSLKPEDTAVYYCAVRLDLGWYYYWGQGTQVTVSS | high polyreactivity |
| QVQLVESGGGLVQAGGSLRLSCAASGRIIGYYVMGWYRQAPGKERELVAAISSRTGTTYYADSVKGRFTISRDYAKNTVYLQMNRLKPEDTAVYYCNARELTTYWSFDYHHSEYDYWGQGTQVTVSS | high polyreactivity |
| QVQLVESGGGLVQAGGSLRLICAASGLTFGWYAMGWYRQAPGKERELVAAITYDGDSTYYADSVKGRFTISRDNAKNTVYLQMNSLKPEDTAVYYCAAEYGYGEMDSWGQGTQVTVSS | high polyreactivity |
| QFQLVESGGGLVQAGGSLRLSCAASGNIFGYYALGWYRQAPGKEREFVAAISGGDSTNYADSVKGRFTNSRDNAKNTVYLQMNSLQPEDTAVYYCARDYWSGASGGYPYDYWGQGTQVTVSS | low polyreactivity |
| QVQLVESGGGLVQAGGSLRLSCAASGSTFSGYAMGWYRQAPGKERELVAAISSSGGGTYYADSVKGRFTISRDNAKNTDYLQMNSLKPEDTAVYYCAARVGYRYRKGRYDYWGKGTQVTVSS | high polyreactivity |
| QVQLVESGGGLVQAGGSLRLSCAASGRTFHDNAMGWYRQAPGKETELVAAISWRGGSTNYADSVKGRFTISRDNAKNTVYLQMNSLKPEDTAVYYCNRDPRKYGKLDYWGQVTQVTVSS | low polyreactivity |
| QVQLVESGGGLVQAGCSLRLSCAASGRIFYSNVMGWYRQAPGKERELVAAISGRTGGTYYADSVKGRFTISRDTAKNTVYLQMNSLKPEDTAVYYCAARVIYYYGSGPYDYWGQGTQVTVSS | low polyreactivity |
| QVQLVESGGGLVQAGGSLRLSCAASGRIFGYNAMGWYRQAPGKERELVAAITTSGGSTYYADSVKGRFTISRDNAKNTVYLQMNSLKPEVTAVYYCAGDSLQVFYPYASDDYWGHGTQVTVSS | low polyreactivity |
| QVQLVDSGGGLVQAGGSLRLTCAASGNTFYYYAMGWYRQAPGKERELVAAINRGGNTYYADSVKGRFTISRDNAKNTVYLQMNSLKPEDTAVYYCAKRKSNPGNRQEYYYWGQGTQVTVSS | low polyreactivity |
| QVQLVESGGGLVQAGGSLRLSCAASGFTFSWYAMGWYRQAPGKERELVAAINADGGTTYYADSVKGRFTISRDNAKNTVYLQMHSLKPEDTAVYYFAAELSVDKYDYWGQGTQVSVSS | low polyreactivity |
| QVQLVESGGGLVQAGGSLRLICAASGSIFSTNTKGWYRQAPGKERELVAAISISGGSTHYADSVKGRFTISRDNAKNPVYLQMNSLKPEYTAVYYCAADLWYYAYSYDYWGRGTQVTVSS | high polyreactivity |
| QVQLVESGGGLVQAGGSLRLSCAASGSTFADYAMGWYRQAPGKERELVAAITSSGGSTYYADSVKGRFTISRDNAKYTVYLQMKSLKAAETAGYYCNARVPRLLFVRFYGMDYWGQGNQVTVSS | low polyreactivity |
| QVQLVESAGGLVQAGGSLSLSCAASGLTFPWYAMGWYRQAPGKERELVAAISSSSGSTYYADSVKGRFTISRDNAKNTVYLQMNSLKPEDTAVYYCAAGYPGGHYDYWGQGTQVTVSS | high polyreactivity |
| QVQLVESGGGLVQAGGSLRLSCAASGNTIIRYAMGWYRQAPGKERELVAAISYSGGRTYYADSVKGRFTISRDNAKNTVYLQMNSLKPEDTAVYYCAARYYPSGYRKKMYYWGQGTQVTVSS | high polyreactivity |
| QVQLVESGGGLVQAGGSLRLSSAASGFTFEFYAMGWYRQAPGKERELVAAITGSGGSTYYADSVKGRFTISRDNAKNTVYLQMNCLKPEDTAVYYWNAVTRRSAQVGHDYWGQVTQVTVSS | high polyreactivity |
| QVQLVESGGGLVQAGGSLRLSCAASGSIYLNYAMGWYRQAPGKERELVAGISNGGSTNYADSVKGRFTISRDNAKNTVYLQMKSLIPEDTAVYYCARPAYKSRGKRFDYWGQGTQVTVSS | low polyreactivity |
| QVQLVESGGGLVQAGGSLRLSCAASGSTFGRYAMGWYRQAPGKERELVAAISRGTTTNYADSVKGRFTFSRDIAKNTVYLQMNSLKPVDTAVYYCAAESPSVFDGYAQLYIILEDYWGQGTQVTVSS | low polyreactivity |
| QVQLVESGGGLVQAGGSLRLSCAASGSIFIAYGMGWYRQEPGKERELVAAITVSGGNTYYADSVKGRFTISRDNAKNTVYLQMNSLKPEDNAVYYCADVTYWQDGHRGNYWGQGTQVTVSS | low polyreactivity |
